Residue numbers refer to the chain shown, from its start.
Key:
Assay in all cases: holdup assay
Parameters in all cases: key: below the threshold = too weak to quantify, mostly under pKd 3.1 to 4
HTRA1, Q92743 = target: HTRA1, Q92743
IL16_1, Q14005 = settings: plain residues with an end cap or a label only (N-terminal biotin on a linker: ahx)
SYNJ2BP, P57105 = target: T1, SYNJ2BP, P57105
T1 sequence (P57105 8-110, limits assumed, looked up): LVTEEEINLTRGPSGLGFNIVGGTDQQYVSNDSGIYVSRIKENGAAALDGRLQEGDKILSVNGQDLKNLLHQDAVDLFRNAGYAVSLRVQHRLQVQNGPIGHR

ARHGEF12, Q9NZN5-2 = settings: plain residues with an end cap or a label only (N-terminal biotin on a linker: ahx)
ARHGEF12, Q9NZN5-2, sequence (Q9NZN5 other isoform, or with tags, fused parts or gaps): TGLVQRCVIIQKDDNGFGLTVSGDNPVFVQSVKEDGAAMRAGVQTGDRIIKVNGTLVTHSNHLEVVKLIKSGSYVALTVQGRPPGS

MAGI2_6, Q86UL8 = settings: plain residues with an end cap or a label only (N-terminal biotin on a linker: ahx)
MAGI2_6, Q86UL8, sequence (Q86UL8 1141-1229): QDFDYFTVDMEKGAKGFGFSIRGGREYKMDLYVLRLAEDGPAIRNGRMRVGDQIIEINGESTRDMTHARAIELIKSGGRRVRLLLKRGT

LNX1_1, Q8TBB1 = target: LNX1_1, Q8TBB1
LNX1_1, Q8TBB1, sequence (Q8TBB1 261-371): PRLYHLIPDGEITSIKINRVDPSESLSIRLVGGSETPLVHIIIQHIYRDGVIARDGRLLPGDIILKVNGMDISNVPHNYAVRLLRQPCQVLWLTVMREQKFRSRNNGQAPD

Inadl_10, Q8NI35 = settings: plain residues with an end cap or a label only (N-terminal biotin on a linker: ahx)
Inadl_10, Q8NI35, sequence (Q8NI35 1673-1763): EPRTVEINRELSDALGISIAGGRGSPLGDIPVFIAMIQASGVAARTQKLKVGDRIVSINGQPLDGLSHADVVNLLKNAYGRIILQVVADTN

TIAM2, Q8IVF5 = target: T2, TIAM2, Q8IVF5
T2 sequence (Q8IVF5 885-986, limits assumed, looked up): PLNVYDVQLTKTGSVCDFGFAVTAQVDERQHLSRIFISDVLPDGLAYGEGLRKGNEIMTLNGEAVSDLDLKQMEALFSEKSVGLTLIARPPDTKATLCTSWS

APBA1_2, Q02410 = target: T3, APBA1_2, Q02410; settings: plain residues with an end cap or a label only (N-terminal biotin on a linker: ahx)
T3 sequence (Q02410 742-832, limits assumed, looked up): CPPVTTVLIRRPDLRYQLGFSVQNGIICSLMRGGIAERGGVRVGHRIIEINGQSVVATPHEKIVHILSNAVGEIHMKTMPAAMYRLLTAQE

DLG2_2, Q15700 = target: DLG2_2, Q15700
MAST1, Q9Y2H9 = target: MAST1, Q9Y2H9
MAST1, Q9Y2H9, sequence (Q9Y2H9 962-1065): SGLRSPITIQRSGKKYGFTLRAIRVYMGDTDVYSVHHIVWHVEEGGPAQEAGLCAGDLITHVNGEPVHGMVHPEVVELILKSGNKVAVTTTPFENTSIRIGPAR

DLG1_2, Q12959 = settings: plain residues with an end cap or a label only (N-terminal biotin on a linker: ahx)
DLG1_2, Q12959, sequence (Q12959 314-412): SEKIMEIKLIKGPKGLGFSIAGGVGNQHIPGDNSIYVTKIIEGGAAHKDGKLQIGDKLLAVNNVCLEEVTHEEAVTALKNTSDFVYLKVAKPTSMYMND

MAGI2_5, Q86UL8 = settings: plain residues with an end cap or a label only (N-terminal biotin on a linker: ahx)
MAGI2_5, Q86UL8, sequence (Q86UL8 915-1017): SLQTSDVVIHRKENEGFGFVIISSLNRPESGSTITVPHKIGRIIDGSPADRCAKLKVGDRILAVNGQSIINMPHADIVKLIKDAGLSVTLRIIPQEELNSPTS

GIPC2, Q8TF65 = target: GIPC2, Q8TF65
GIPC2, Q8TF65, sequence (Q8TF65 112-203): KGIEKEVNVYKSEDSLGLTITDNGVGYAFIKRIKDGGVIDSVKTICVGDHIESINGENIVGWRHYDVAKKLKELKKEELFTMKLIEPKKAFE

GRASP, Q7Z6J2 = settings: plain residues with an end cap or a label only (N-terminal biotin on a linker: ahx)
GRASP, Q7Z6J2, sequence (Q7Z6J2 96-193): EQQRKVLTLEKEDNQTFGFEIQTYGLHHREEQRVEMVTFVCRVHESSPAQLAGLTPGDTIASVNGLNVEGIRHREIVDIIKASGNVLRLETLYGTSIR

MAGI1_2, Q96QZ7 = target: MAGI1_2, Q96QZ7
MAGI1_2, Q96QZ7, sequence (Q96QZ7 456-580): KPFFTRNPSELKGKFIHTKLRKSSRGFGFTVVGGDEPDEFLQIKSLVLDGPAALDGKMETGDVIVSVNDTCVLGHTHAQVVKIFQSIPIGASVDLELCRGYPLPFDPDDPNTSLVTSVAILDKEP

NOS1, P29475 = settings: plain residues with an end cap or a label only (N-terminal biotin on a linker: ahx)
NOS1, P29475, sequence (P29475 9-101): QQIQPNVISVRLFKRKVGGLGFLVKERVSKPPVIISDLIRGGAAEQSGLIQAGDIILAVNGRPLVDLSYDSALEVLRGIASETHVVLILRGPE

GRID2IP_2, A4D2P6 = target: GRID2IP_2, A4D2P6
GRID2IP_2, A4D2P6, sequence (A4D2P6 272-370): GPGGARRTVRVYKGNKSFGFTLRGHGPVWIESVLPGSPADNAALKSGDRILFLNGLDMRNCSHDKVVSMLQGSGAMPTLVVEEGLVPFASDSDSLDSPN

ARHGEF11, O15085 = target: T4, ARHGEF11, O15085; settings: plain residues with an end cap or a label only (N-terminal biotin on a linker: ahx)
T4 sequence (O15085 42-136, limits assumed, looked up): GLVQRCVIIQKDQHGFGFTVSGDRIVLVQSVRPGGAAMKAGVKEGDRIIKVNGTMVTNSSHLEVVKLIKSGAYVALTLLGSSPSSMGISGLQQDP

DFNB31_3, Q9P202 = target: T5, DFNB31_3, Q9P202; settings: plain residues with an end cap or a label only (N-terminal biotin on a linker: ado-ado)
T5 sequence (Q9P202 811-907, limits assumed, looked up): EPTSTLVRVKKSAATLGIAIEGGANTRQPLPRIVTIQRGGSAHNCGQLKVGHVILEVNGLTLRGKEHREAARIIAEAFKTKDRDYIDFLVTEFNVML

PDZD7_3, Q9H5P4 = target: T6, PDZD7_3, Q9H5P4; settings: plain residues with an end cap or a label only (N-terminal biotin on a linker: ado-ado)
T6 sequence (Q9H5P4 857-944, limits assumed, looked up): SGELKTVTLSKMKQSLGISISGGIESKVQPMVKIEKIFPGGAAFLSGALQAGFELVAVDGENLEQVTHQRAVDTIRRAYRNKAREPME

DLG2_3, Q15700 = settings: plain residues with an end cap or a label only (N-terminal biotin on a linker: ado-ado)
HTRA3, P83110 = target: T7, HTRA3, P83110; settings: plain residues with an end cap or a label only (N-terminal biotin on a linker: ado-ado)
T7 sequence (P83110 354-453, limits assumed, looked up): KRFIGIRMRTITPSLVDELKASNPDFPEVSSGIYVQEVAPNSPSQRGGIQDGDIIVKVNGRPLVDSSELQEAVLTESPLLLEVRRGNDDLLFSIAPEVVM

LIN7B, Q9HAP6 = target: T8, LIN7B, Q9HAP6; settings: plain residues with an end cap or a label only (N-terminal biotin on a linker: ado-ado)
T8 sequence (Q9HAP6 88-185, limits assumed, looked up): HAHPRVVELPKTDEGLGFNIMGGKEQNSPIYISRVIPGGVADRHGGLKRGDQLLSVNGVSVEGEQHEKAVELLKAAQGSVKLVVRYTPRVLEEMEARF

LIN7C, Q9NUP9 = target: T9, LIN7C, Q9NUP9; settings: plain residues with an end cap or a label only (N-terminal biotin on a linker: ado-ado)
T9 sequence (Q9NUP9 88-185, limits assumed, looked up): T8 sequence (Q9HAP6 88-185, limits assumed, looked up) with A2S, D13E, V35I, V40I, Q65H, S79K, R89K, A96S

PTPN3, P26045 = settings: plain residues with an end cap or a label only (N-terminal biotin on a linker: ado-ado)
PTPN3, P26045, sequence (P26045 505-587): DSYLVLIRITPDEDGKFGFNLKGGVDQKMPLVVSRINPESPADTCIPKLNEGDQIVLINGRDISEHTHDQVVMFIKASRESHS

NHERF4_1, Q86UT5-2 = settings: plain residues with an end cap or a label only (N-terminal biotin on a linker: ado-ado)
NHERF4_1, Q86UT5-2, sequence (Q86UT5 other isoform, or with tags, fused parts or gaps): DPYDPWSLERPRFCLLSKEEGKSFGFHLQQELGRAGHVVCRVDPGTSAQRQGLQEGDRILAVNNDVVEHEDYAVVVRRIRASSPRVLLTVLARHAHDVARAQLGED

MPP6, Q9NZW5 = target: T10, MPP6, Q9NZW5; settings: plain residues with an end cap or a label only (N-terminal biotin on a linker: ado-ado)
T10 sequence (Q9NZW5 125-219, limits assumed, looked up): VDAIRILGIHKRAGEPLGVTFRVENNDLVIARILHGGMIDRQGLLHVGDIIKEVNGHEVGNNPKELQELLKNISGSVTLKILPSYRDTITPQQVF

APBA3_1, O96018 = settings: plain residues with an end cap or a label only
APBA3_1, O96018, sequence (O96018 other isoform, or with tags, fused parts or gaps): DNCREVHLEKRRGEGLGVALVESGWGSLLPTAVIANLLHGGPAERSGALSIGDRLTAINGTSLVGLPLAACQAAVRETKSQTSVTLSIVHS

MPDZ_12, O75970 = target: T11, MPDZ_12, O75970; settings: plain residues with an end cap or a label only (N-terminal biotin on a linker: ado-ado)
T11 sequence (O75970 1857-1958, limits assumed, looked up): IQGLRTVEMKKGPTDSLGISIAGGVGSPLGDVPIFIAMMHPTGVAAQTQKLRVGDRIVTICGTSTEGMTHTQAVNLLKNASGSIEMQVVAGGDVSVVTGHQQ

DLG4_2, P78352 = settings: plain residues with an end cap or a label only (N-terminal biotin on a linker: ado-ado)
DLG4_2, P78352, sequence (P78352 155-259): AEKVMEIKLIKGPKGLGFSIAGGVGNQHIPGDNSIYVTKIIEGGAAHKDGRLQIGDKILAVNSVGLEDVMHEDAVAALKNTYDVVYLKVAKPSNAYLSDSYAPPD

MPDZ_10, O75970 = target: T12, MPDZ_10, O75970; settings: plain residues with an end cap or a label only (N-terminal biotin on a linker: ado-ado)
T12 sequence (O75970 1624-1722, limits assumed, looked up): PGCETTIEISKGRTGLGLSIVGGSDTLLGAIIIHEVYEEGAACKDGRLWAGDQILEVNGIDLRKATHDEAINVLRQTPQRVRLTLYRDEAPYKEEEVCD

DLG3_1, Q92796 = target: T13, DLG3_1, Q92796; settings: plain residues with an end cap or a label only (N-terminal biotin on a linker: ado-ado)
T13 sequence (Q92796 125-227, limits assumed, looked up): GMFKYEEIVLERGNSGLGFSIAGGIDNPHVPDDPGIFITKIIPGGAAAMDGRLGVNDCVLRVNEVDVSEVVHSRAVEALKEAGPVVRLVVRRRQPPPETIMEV

SHANK1, Q9Y566 = target: T14, SHANK1, Q9Y566; settings: plain residues with an end cap or a label only (N-terminal biotin on a linker: ado-ado)
T14 sequence (Q9Y566 658-767, limits assumed, looked up): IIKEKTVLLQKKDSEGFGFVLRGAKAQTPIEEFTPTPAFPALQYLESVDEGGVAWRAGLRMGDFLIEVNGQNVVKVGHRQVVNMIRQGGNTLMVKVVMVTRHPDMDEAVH

TJP2_1, Q9UDY2 = settings: plain residues with an end cap or a label only (N-terminal biotin on a linker: ado-ado)
TJP2_1, Q9UDY2, sequence (Q9UDY2 24-128): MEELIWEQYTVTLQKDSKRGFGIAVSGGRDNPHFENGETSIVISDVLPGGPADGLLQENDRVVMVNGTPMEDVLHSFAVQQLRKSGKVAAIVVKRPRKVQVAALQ

IL16_3, Q14005 = settings: plain residues with an end cap or a label only (N-terminal biotin on a linker: ado-ado)
IL16_3, Q14005, sequence (Q14005 1107-1207): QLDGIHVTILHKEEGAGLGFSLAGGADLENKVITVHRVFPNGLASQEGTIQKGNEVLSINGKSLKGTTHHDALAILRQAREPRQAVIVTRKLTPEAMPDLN

GORASP2, Q9H8Y8 = settings: plain residues with an end cap or a label only (N-terminal biotin on a linker: ado-ado)
DLG1_3, Q12959 = settings: plain residues with an end cap or a label only (N-terminal biotin on a linker: ado-ado)
DLG1_3, Q12959, sequence (Q12959 457-571): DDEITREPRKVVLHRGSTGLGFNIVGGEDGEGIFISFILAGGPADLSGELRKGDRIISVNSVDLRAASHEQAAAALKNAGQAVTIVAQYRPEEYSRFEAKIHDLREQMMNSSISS

GRIP1_5, Q9Y3R0 = target: T15, GRIP1_5, Q9Y3R0; settings: plain residues with an end cap or a label only (N-terminal biotin on a linker: ado-ado)
T15 sequence (Q9Y3R0 568-668, limits assumed, looked up): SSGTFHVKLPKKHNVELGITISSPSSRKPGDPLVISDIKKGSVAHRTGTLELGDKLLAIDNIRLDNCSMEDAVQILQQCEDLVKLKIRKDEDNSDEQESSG

TJP1_3, Q07157 = settings: plain residues with an end cap or a label only (N-terminal biotin on a linker: ado-ado)
TJP1_3, Q07157, sequence (Q07157 416-512): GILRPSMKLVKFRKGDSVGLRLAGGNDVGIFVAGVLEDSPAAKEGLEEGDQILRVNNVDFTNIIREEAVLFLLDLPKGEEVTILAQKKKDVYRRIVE

ARHGAP21, Q5T5U3 = target: T16, ARHGAP21, Q5T5U3; settings: plain residues with an end cap or a label only (N-terminal biotin on a linker: ado-ado)
T16 sequence (Q5T5U3 45-169, limits assumed, looked up): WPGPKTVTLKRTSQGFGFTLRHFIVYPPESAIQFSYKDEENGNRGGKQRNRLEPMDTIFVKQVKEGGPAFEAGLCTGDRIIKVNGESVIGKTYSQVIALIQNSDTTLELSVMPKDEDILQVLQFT

FRMPD2_1, Q68DX3 = settings: plain residues with an end cap or a label only (N-terminal biotin on a linker: ado-ado)
FRMPD2_1, Q68DX3, sequence (Q68DX3 770-861): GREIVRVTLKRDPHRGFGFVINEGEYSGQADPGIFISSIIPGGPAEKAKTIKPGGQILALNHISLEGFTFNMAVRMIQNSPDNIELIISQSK

[1] = plain residues with an end cap or a label only (N-terminal biotin on a linker: ahx)
[2] = plain residues with an end cap or a label only (N-terminal biotin on a linker: ado-ado)

HTRA1, Q92743, sequence (Q92743 360-477): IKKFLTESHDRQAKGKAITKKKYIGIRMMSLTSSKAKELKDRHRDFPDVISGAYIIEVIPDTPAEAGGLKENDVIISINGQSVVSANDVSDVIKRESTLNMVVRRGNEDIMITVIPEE
IL16_1, Q14005, sequence (Q14005 210-306): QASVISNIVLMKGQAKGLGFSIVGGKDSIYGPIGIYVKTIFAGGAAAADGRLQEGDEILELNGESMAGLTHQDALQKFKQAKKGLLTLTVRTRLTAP

LCKSHAFSHV [PDLIM7, Q9NR12]
pKd (HTRA1, Q92743; [1]): 3.68
pKd (IL16_1, Q14005): 3.51
pKd (SYNJ2BP, P57105; [1]): 3.7
pKd (ARHGEF12, Q9NZN5-2): 3.55
pKd (MAGI2_6, Q86UL8): 3.61
pKd (LNX1_1, Q8TBB1; [1]): 3.51
pKd (Inadl_10, Q8NI35): 3.52
pKd (TIAM2, Q8IVF5; [1]): 3.48
pKd (APBA1_2, Q02410): 3.83
pKd (DLG2_2, Q15700; [1]): 3.56
pKd (MAST1, Q9Y2H9; [1]): 3.75
pKd (DLG1_2, Q12959): 3.48
pKd (MAGI2_5, Q86UL8): 3.86
pKd (GIPC2, Q8TF65; [1]): 3.67
pKd (GRASP, Q7Z6J2): 3.65
pKd (MAGI1_2, Q96QZ7; [1]): 3.9
pKd (NOS1, P29475): 3.48
pKd (GRID2IP_2, A4D2P6; [1]): 3.62
pKd (ARHGEF11, O15085): 3.48

KSTTRSSSSC [NDE1, Q9NXR1]
pKd (DFNB31_3, Q9P202): 3.75
pKd (SYNJ2BP, P57105; [2]): 3.76
pKd (PDZD7_3, Q9H5P4): 3.73
pKd (DLG2_3, Q15700): 3.58
pKd (HTRA3, P83110): 3.74
pKd (LIN7B, Q9HAP6): 3.64
pKd (TIAM2, Q8IVF5; [2]): 3.85
pKd (MAST1, Q9Y2H9; [2]): 3.61
pKd (GIPC2, Q8TF65; [2]): 3.64
pKd (LIN7C, Q9NUP9): 3.88
pKd (MAGI1_2, Q96QZ7; [2]): 3.71
pKd (PTPN3, P26045): 3.52
pKd (NHERF4_1, Q86UT5-2): 3.85
pKd (GRID2IP_2, A4D2P6; [2]): 3.59
pKd (MPP6, Q9NZW5): 3.6

RRSQSPSANC [a stretch of P69709, P69709]
pKd (APBA3_1, O96018): below the threshold

EYRKDNKVAA [LSM14A, Q8ND56]
pKd (HTRA1, Q92743; [2]): 3.67
pKd (MPDZ_12, O75970): 3.68
pKd (DLG4_2, P78352): 3.71
pKd (DLG2_3, Q15700): 3.88
pKd (MPDZ_10, O75970): 3.68
pKd (LIN7B, Q9HAP6): 3.83
pKd (LNX1_1, Q8TBB1; [2]): 3.82
pKd (DLG3_1, Q92796): 3.55
pKd (DLG2_2, Q15700; [2]): 3.54
pKd (SHANK1, Q9Y566): 3.51
pKd (TJP2_1, Q9UDY2): 3.57
pKd (IL16_3, Q14005): 3.51
pKd (GORASP2, Q9H8Y8): 3.52
pKd (DLG1_3, Q12959): 3.64
pKd (NHERF4_1, Q86UT5-2): 3.61
pKd (GRIP1_5, Q9Y3R0): 3.6
pKd (TJP1_3, Q07157): 3.53
pKd (ARHGAP21, Q5T5U3): 3.67
pKd (FRMPD2_1, Q68DX3): 3.68
